Measurements as given in patent US20190111164A1 (Boehringer Ingelheim, published 2019).
Where a chain is given by its changes, count along the chain named. * marks the point of attachment. αGalNAc = CC(=O)N[C@@H]1[C@@H](O)[C@@H](O)[C@@H](CO)O[C@@H]1*

T1: MUC1-2 (SMILES …)
T1 construct: also called H2N-APGS*T*APP-NH2
T1 peptide: H-APGS(αGalNAc)T(αGalNAc)APP-NH2

T2: IgA-Pep02
T2 peptide: H-KPVPSTPPTPSC-OH

T3: D-MUC2 (SMILES …)
T3 construct: also called Ac-PT*T*TPLK-NH2
T3 peptide: Ac-PT(αGalNAc)T(αGalNAc)TPLK-NH2

T4: MUC1-1R
T4 peptide: H-TSAPDTRDAP-NH2

T5: IgA-Pep07
T5 peptide: H-KTPPTPSPSTPC-OH

T6: MUC5AC (SMILES …)
T6 peptide: H-GTTPSPVPT(αGalNAc)TSTTSAP-OH

T7: IgA-Pep16 (SMILES …)
T7 peptide: H-KPSTPPTPS(αGalNAc)PSC-OH

T8: EA2 (SMILES …)
T8 construct: also called Ac-PTTDSTT*PAPTTK-NH2
T8 peptide: Ac-PTTDSTT(αGalNAc)PAPTTK-NH2

T9: IgA-Pep13 (SMILES …)
T9 construct: also called H2N-KPS*TPPT*PSPSC-OH
T9 peptide: H-KPS(αGalNAc)TPPT(αGalNAc)PSPSC-OH

T10: a-Dystroglycan peptide (no Tn)
T10 construct: Unmodified control of the a-Dystroglycan glycopeptide
T10 peptide: Ac-PPTTTTKKP-NH2

T11: Peptide-5
T11 construct: also called H2N-KTTTG-CONH2
T11 peptide: H-KTTTG-NH2

T12: F-MUC2 (SMILES …)
T12 construct: also called Ac-PTT*T*PLK-NH2
T12 peptide: Ac-PTT(αGalNAc)T(αGalNAc)PLK-NH2

T13: B-MUC2 (SMILES …)
T13 construct: also called Ac-PTT*TPLK-NH2
T13 peptide: Ac-PTT(αGalNAc)TPLK-NH2

T14: Peptide-4
T14 construct: also called H2N-KTTT-CONH2
T14 peptide: H-KTTT-NH2

T15: IgA-Pep18 (SMILES …)
T15 peptide: H-KPST(αGalNAc)PPTPSPSC-OH

T16: E-MUC2 (SMILES …)
T16 construct: also called Ac-PT*TT*PLK-NH2
T16 peptide: Ac-PT(αGalNAc)TT(αGalNAc)PLK-NH2

T17: EA2-R
T17 peptide: Ac-PTTDSTTPAPTTK-NH2

T18: a-Dystroglycan glycopeptide (four Tn) (SMILES …)
T18 construct: also called Ac-PPT*T*T*T*KKP-HN2
T18 peptide: Ac-PPT(αGalNAc)T(αGalNAc)T(αGalNAc)T(αGalNAc)KKP-NH2

T19: IgA-Pep03 (SMILES …)
T19 construct: also called H2N-KPVPS*TPPTPSC-OH
T19 peptide: H-KPVPS(αGalNAc)TPPTPSC-OH

T20: MUC1-2R
T20 peptide: H-APGSTAPP-NH2

T21: C-MUC2 (SMILES …)
T21 construct: also called Ac-PTTT*PLK-NH2
T21 peptide: Ac-PTTT(αGalNAc)PLK-NH2

T22: A-MUC2 (SMILES …)
T22 construct: also called Ac-PT*TTPLK-NH2
T22 peptide: Ac-PT(αGalNAc)TTPLK-NH2

T23: IgA-Pep08 (SMILES …)
T23 peptide: H-KTPPTPSPST(αGalNAc)PC-OH

T24: IgA-Pep10
T24 peptide: H-KPSPSTPPTPSC-OH

T25: MUC1-1 (SMILES …)
T25 construct: also called H2N-TSAPDT*RDAP-NH2
T25 peptide: H-TSAPDT(αGalNAc)RDAP-NH2

T26: G-MUC2 (SMILES …)
T26 construct: also called Ac-PT*T*T*PLK-NH2
T26 peptide: Ac-PT(αGalNAc)T(αGalNAc)T(αGalNAc)PLK-NH2

T27: IgA-Pep05
T27 construct: also called IgA-Pep12; IgA-Pep14
T27 peptide: H-KPSTPPTPSPSC-OH

B1: 2F3 parent antibody (antibody, V domains shown)
VH: QITLRESGGGLVQPGGSLRLSCAASGFTFDSYAMSWVRQAPGKGLEWVSAISGSGDSTYYADSVKGRFSISRDNSKNTLYLQMNSLRAEDTAVYYCAIRREYSGYAPFDYWGQGTLVTVSS
VL: DIVMTQTPSSLSASVGDRVTITCRASQGISSWLAWYQQKPEKAPRSLIYAASSLQSGVPSRFSGSGSGTDFTLTISSLQPEDFATYYCQQYISYPYTFGQGTKLEIK
notes: Only variable domains are used here; V genes were cloned into human IgG1 (or IgG3)/kappa; also called 2F3 Original; original 2F3 parent
B2: 2F3 variant #6 (antibody, IgG1, V domains shown)
VH: B1 VH with I2V, T3Q, R5L, D56A, T118I
VL: B1 VL
notes: Mutant heavy chain in an IgG expression vector, co-expressed with the wild type 2F3 light chain (IgG1, kappa); also called 2F3#6; clone 6
B3: 2F3 variant #17v2 (antibody, IgG1, V domains shown)
VH: B1 VH with D56H, S85N
VL: B1 VL
notes: IgG1, kappa, wild type 2F3 light chain; also called 2F3#17V2; 2F3#17v2

What was measured:
[1] = biological target: T1, MUC1-2; experiment: glycopeptide microarray, antibody at 50 ug/mL
Procedure: (§1) With concentrations adjusted to 100 μM in printing buffer (300 mM sodium phosphates, pH 8.5), 0.33 nL of each solution was spotted using a piezoelectric printer. The microarray was printed in spot replicates of 6. Arrays were interrogated with monoclonal anti-Tn antibodies 2F3 parent, 2F3V variant 6, or 2F3 variant 17-2 and detected with fluorescently labeled secondary antibodies and streptavidin as noted. Scanning and quantification were performed with ProScanArray scanner and ScanArray Express software (Perkin-Elmer). The assay examined a panel of ˜50 Tn glycopeptides and addressed whether spacing, number of Tn modifications, specific residues modified, or sequence context contributed to the specificity of binding by 2F3. […] Ser-Tn near free termini and multiple Ser-Tn in a single peptide increased binding. Using the 2F3 parent antibody (“parent”), Variant 6 and Variant 17, the binding of the antibodies to a panel of different glycoproteins was assayed to determine the preferred Tn context recognized by 2F3 and the 2F3G1 variants. […] Importantly, modification to Thr residues gave rise to little to no binding. […] Furthermore, binding was observed not only to peptides that contained Ser-Tn, but specifically those that were at least 5 amino acids from the attachment point to the solid matrix. Ser-Tn near free termini and multiple Ser-Tn in a single peptide increased binding.
(§2) The antibodies were applied to glycopeptide arrays at a concentration of 5 ug/mL (no data shown form this group) or 50 ug/mL (data shown in bar chart and in the table 9).

[2] = biological target: T2, IgA-Pep02; experiment: glycopeptide microarray, antibody at 50 ug/mL
Procedure: as §1, §2

[3] = biological target: T3, D-MUC2; experiment: glycopeptide microarray, antibody at 50 ug/mL
Procedure: as §1, §2

[4] = biological target: T4, MUC1-1R; experiment: glycopeptide microarray, antibody at 50 ug/mL
Procedure: as §1, §2

[5] = biological target: T5, IgA-Pep07; experiment: glycopeptide microarray, antibody at 50 ug/mL
Procedure: as §1, §2

[6] = biological target: T6, MUC5AC; experiment: glycopeptide microarray, antibody at 50 ug/mL
Procedure: as §1, §2

[7] = biological target: T7, IgA-Pep16; experiment: glycopeptide microarray, antibody at 50 ug/mL
Procedure: as §1, §2

[8] = biological target: T8, EA2; experiment: glycopeptide microarray, antibody at 50 ug/mL
Procedure: as §1, §2

[9] = biological target: T9, IgA-Pep13; experiment: glycopeptide microarray, antibody at 50 ug/mL
Procedure: as §1, §2

[10] = biological target: T10, a-Dystroglycan peptide (no Tn); experiment: glycopeptide microarray, antibody at 50 ug/mL
Procedure: as §1, §2

[11] = biological target: T11, Peptide-5; experiment: glycopeptide microarray, antibody at 50 ug/mL
Procedure: as §1, §2

[12] = biological target: T12, F-MUC2; experiment: glycopeptide microarray, antibody at 50 ug/mL
Procedure: as §1, §2

[13] = biological target: T13, B-MUC2; experiment: glycopeptide microarray, antibody at 50 ug/mL
Procedure: as §1, §2

[14] = biological target: T14, Peptide-4; experiment: glycopeptide microarray, antibody at 50 ug/mL
Procedure: as §1, §2

[15] = biological target: T15, IgA-Pep18; experiment: glycopeptide microarray, antibody at 50 ug/mL
Procedure: as §1, §2

[16] = biological target: T16, E-MUC2; experiment: glycopeptide microarray, antibody at 50 ug/mL
Procedure: as §1, §2

[17] = biological target: T17, EA2-R; experiment: glycopeptide microarray, antibody at 50 ug/mL
Procedure: as §1, §2

[18] = biological target: T18, a-Dystroglycan glycopeptide (four Tn); experiment: glycopeptide microarray, antibody at 50 ug/mL
Procedure: as §1, §2

[19] = biological target: T19, IgA-Pep03; experiment: glycopeptide microarray, antibody at 50 ug/mL
Procedure: as §1, §2

[20] = biological target: T20, MUC1-2R; experiment: glycopeptide microarray, antibody at 50 ug/mL
Procedure: as §1, §2

[21] = biological target: T21, C-MUC2; experiment: glycopeptide microarray, antibody at 50 ug/mL
Procedure: as §1, §2

[22] = biological target: T22, A-MUC2; experiment: glycopeptide microarray, antibody at 50 ug/mL
Procedure: as §1, §2

[23] = biological target: T23, IgA-Pep08; experiment: glycopeptide microarray, antibody at 50 ug/mL
Procedure: as §1, §2

[24] = biological target: T24, IgA-Pep10; experiment: glycopeptide microarray, antibody at 50 ug/mL
Procedure: as §1, §2

[25] = biological target: T25, MUC1-1; experiment: glycopeptide microarray, antibody at 50 ug/mL
Procedure: as §1, §2

[26] = biological target: T26, G-MUC2; experiment: glycopeptide microarray, antibody at 50 ug/mL
Procedure: as §1, §2

[27] = biological target: T27, IgA-Pep05; experiment: glycopeptide microarray, antibody at 50 ug/mL; spot IgA-Pep14
Procedure: as §1, §2

[28] = biological target: T27, IgA-Pep05; experiment: glycopeptide microarray, antibody at 50 ug/mL; spot IgA-Pep05
Procedure: as §1, §2

[29] = biological target: T27, IgA-Pep05; experiment: glycopeptide microarray, antibody at 50 ug/mL; spot IgA-Pep12
Procedure: as §1, §2

Row | Binder | RLU [2] | RLU [4] | RLU [5] | RLU [6] | RLU [8] | RLU [10] | RLU [11] | RLU [12] | RLU [14] | RLU [15] | RLU [16] | RLU [17] | RLU [18] | RLU [20] | RLU [21] | RLU [22] | RLU [23] | RLU [24] | RLU [25] | RLU [26] | also measured
1 | B1 | 26 RLU | 7 RLU | 20 RLU | 23 RLU | 11 RLU | 37 RLU | 10 RLU | 11 RLU | 7 RLU | 16 RLU | 8 RLU | 15 RLU | 24 RLU | 4 RLU | 9 RLU | 45 RLU | 22 RLU | 19 RLU | 11 RLU | 10 RLU | RLU [1]: 33 RLU; RLU [3]: 12 RLU; RLU [7]: 115 RLU; RLU [9]: 40 RLU; RLU [13]: 19 RLU; RLU [19]: 58 RLU; RLU [27]: 43 RLU; RLU [28]: 28 RLU; RLU [29]: 20 RLU
2 | B2 | 35 RLU | 7 RLU | 30 RLU | -14 RLU | 18 RLU | -4 RLU | -6 RLU | 54 RLU | 31 RLU | 22 RLU | 27 RLU | 45 RLU | 28 RLU | 0 RLU | 22 RLU | 55 RLU | -6 RLU | -127 RLU | 14 RLU | -39 RLU | RLU [1]: 59 RLU; RLU [3]: 12 RLU; RLU [13]: 23 RLU; RLU [27]: 38 RLU; RLU [28]: 60 RLU; RLU [29]: 83 RLU
3 | B3 | 75 RLU | 19 RLU | 144 RLU | 87 RLU | 16 RLU | 86 RLU | 41 RLU | 70 RLU | 33 RLU | 174 RLU | 87 RLU | 29 RLU | 51 RLU | 6 RLU | 30 RLU | 65 RLU | 282 RLU | 125 RLU | 61 RLU | 51 RLU | RLU [27]: 112 RLU; RLU [28]: 149 RLU; RLU [29]: 457 RLU
